We go through eleven molecules from US20250066745A1, “MUTANTS AND USE THEREOF” (BGI SHENZHEN, priority 2021, published 2025).

The nature of experiment [1]: Luminescence activity assay of purified Gaussia luciferase mutants on coelenterazine derivative ZS2. More on the design: key to Activity of mutant relative to wild-type Gaussia luciferase without the signal peptide: ratio of mutant luminescence intensity to wild-type Gaussia luciferase. As to conditions: Substrate ZS2 (Table 16). Type of experiment: biochemical. The protocol: (§1) In this Example, the protein concentration was determined with a BCA quantitative kit (Thermo Scientific™ Pierce™ BCA Protein Assay Kit) accurately. The purified luciferase obtained in Example 5 was diluted with diluent (50 mM Tris-HCl, pH 8.0, 100 mM NaCl, 0.1% (v/v) Tween-20) to 1 μg/mL. The diluted luciferase, taken for 10 μL, was moved into a black 96-well plate, then added with 90 μL of the substrates coelenterazine, fluoro-coelenterazine or coelenterazine derivative ZS2 (purchased from Biolab) which was diluted into 100 μM with the same diluent, and the luminescence intensity of the plate was read with a self-luminescence module of a microplate reader. The mutation site of the mutant, the measured luminescence intensity, the ratio of luminescence intensities of the advantageous mutants to the wild-type Gaussia luciferase without the signal peptide having the sequence shown in SEQ ID NO: 3 are shown in Table 15. The results of catalytic activity assay of the advantageous mutants relative to the wild-type Gaussia luciferase without the signal peptide having the sequence shown in SEQ ID NO: 3 on substrate coelenterazine are shown in FIG. 6. […] The results of catalytic activity assay of the advantageous mutants relative to the wild-type Gaussia luciferase without the signal peptide having the sequence shown in SEQ ID NO: 3 on substrate fluoro-coelenterazine are shown in FIG. 7.
(§2) The new mutant library constructed in Example 7 was screened and tested for substrate specificity. Expression and purification schemes were the same as that in Example 5, and the activity assay scheme was the same as that in Example 6. The respective catalytic activities of combinatorial mutants on coelenterazine, fluoro-coelenterazine or coelenterazine derivative ZS2, and coelenterazine derivative ZS26 (purchased from BIOLAB) were assayed, and comparisons among the substrate specificities of the combinatorial mutants were based on the ratios of catalytic activities on two corresponding substrates.

Experiment [2] is described as follows: Luminescence activity assay of purified Gaussia luciferase mutants on coelenterazine. Type of experiment: biochemical. On the set-up: key to Activity of mutant relative to wild-type Gaussia luciferase without the signal peptide: ratio of mutant luminescence intensity to wild-type Gaussia luciferase. As to conditions: Substrate CTZ (Table 16). The protocol: as §1, §2

B1: Q152H Q163D T167S S170N A182L G183A: Gaussia luciferase mutant (protein)
chain: MGVKVLFALICIAVAEAKPTENNEDFNIVAVASNFATTDLDADRGKLPGKKLPLEVLKEMEANARKAGCTRGCLICLSHIKCTPKMKKFIPGRCHTYEGDKESAQGGIGEAIVDIPEIPGFKDLEPMEQFIAQVDLCVDCTTGCLKGLANVHCSDLLKKWLPDRCASFANKIQGQVDKIKGLAGD
modifications: SIGNAL (1)..(17)
notes: Gaussia luciferase mutant
As to B1, the “Activity of mutant relative to wild-type Gaussia luciferase without the signal peptide” value in experiment [1] stood at 0.698; in experiment [2], 1.197.

B2: Q152R T167G S170N K178S A182L G183N: Gaussia luciferase mutant (protein)
chain: MGVKVLFALICIAVAEAKPTENNEDFNIVAVASNFATTDLDADRGKLPGKKLPLEVLKEMEANARKAGCTRGCLICLSHIKCTPKMKKFIPGRCHTYEGDKESAQGGIGEAIVDIPEIPGFKDLEPMEQFIAQVDLCVDCTTGCLKGLANVRCSDLLKKWLPQRCAGFANKIQGQVDSIKGLNGD
modifications: SIGNAL (1)..(17)
notes: Gaussia luciferase mutant
For B2, the “Activity of mutant relative to wild-type Gaussia luciferase without the signal peptide” value in experiment [1] was found to be 0.737; in experiment [2] it was 0.807.

B3: Q163S T167S S170T G174N K178T: Gaussia luciferase mutant (protein)
chain: MGVKVLFALICIAVAEAKPTENNEDFNIVAVASNFATTDLDADRGKLPGKKLPLEVLKEMEANARKAGCTRGCLICLSHIKCTPKMKKFIPGRCHTYEGDKESAQGGIGEAIVDIPEIPGFKDLEPMEQFIAQVDLCVDCTTGCLKGLANVQCSDLLKKWLPSRCASFATKIQNQVDTIKGAGGD
modifications: SIGNAL (1)..(17)
notes: Gaussia luciferase mutant
With B3, the “Activity of mutant relative to wild-type Gaussia luciferase without the signal peptide” value in experiment [1] came out at 2.603; in experiment [2], 0.706.

B4: Q152R S154F Q163D S170T G174N K178T A182Y: Gaussia luciferase mutant (protein)
chain: MGVKVLFALICIAVAEAKPTENNEDFNIVAVASNFATTDLDADRGKLPGKKLPLEVLKEMEANARKAGCTRGCLICLSHIKCTPKMKKFIPGRCHTYEGDKESAQGGIGEAIVDIPEIPGFKDLEPMEQFIAQVDLCVDCTTGCLKGLANVRCFDLLKKWLPDRCATFATKIQNQVDTIKGYGGD
modifications: SIGNAL (1)..(17)
notes: Gaussia luciferase mutant
In the case of B4, the “Activity of mutant relative to wild-type Gaussia luciferase without the signal peptide” value in experiment [1] is on record as 0.003; in experiment [2], 0.020.

B5: Q152H Q163T T167S S170D G174K K178N A182Y G183N: Gaussia luciferase mutant (protein)
chain: MGVKVLFALICIAVAEAKPTENNEDFNIVAVASNFATTDLDADRGKLPGKKLPLEVLKEMEANARKAGCTRGCLICLSHIKCTPKMKKFIPGRCHTYEGDKESAQGGIGEAIVDIPEIPGFKDLEPMEQFIAQVDLCVDCTTGCLKGLANVHCSDLLKKWLPTRCASFADKIQKQVDNIKGYNGD
modifications: SIGNAL (1)..(17)
notes: Gaussia luciferase mutant
In the case of B5, the “Activity of mutant relative to wild-type Gaussia luciferase without the signal peptide” value in experiment [1] was found to be 0.089; in experiment [2], 0.079.

B6: Q152K Q163D S170N G174K Q175E K178T A182L G183A: Gaussia luciferase mutant (protein)
chain: MGVKVLFALICIAVAEAKPTENNEDFNIVAVASNFATTDLDADRGKLPGKKLPLEVLKEMEANARKAGCTRGCLICLSHIKCTPKMKKFIPGRCHTYEGDKESAQGGIGEAIVDIPEIPGFKDLEPMEQFIAQVDLCVDCTTGCLKGLANVKCSDLLKKWLPDRCATFANKIQKEVDTIKGLAGD
modifications: SIGNAL (1)..(17)
notes: Gaussia luciferase mutant
In the case of B6, the “Activity of mutant relative to wild-type Gaussia luciferase without the signal peptide” value in experiment [1] amounted to 1.183; in experiment [2] it was 1.079.

B7: Q152R Q163S T167G S170V G174K Q175E K178S A182Y G183A: Gaussia luciferase mutant (protein)
chain: MGVKVLFALICIAVAEAKPTENNEDFNIVAVASNFATTDLDADRGKLPGKKLPLEVLKEMEANARKAGCTRGCLICLSHIKCTPKMKKFIPGRCHTYEGDKESAQGGIGEAIVDIPEIPGFKDLEPMEQFIAQVDLCVDCTTGCLKGLANVRCSDLLKKWLPSRCAGFAVKIQKEVDSIKGYAGD
modifications: SIGNAL (1)..(17)
notes: Gaussia luciferase mutant
On to B7, for which the “Activity of mutant relative to wild-type Gaussia luciferase without the signal peptide” value is listed as 1.011 in experiment [1] and 0.992 in experiment [2].

B8: Q152R Q163T T167S S170N G174K K178S A182Y G183A: Gaussia luciferase mutant (protein)
chain: MGVKVLFALICIAVAEAKPTENNEDFNIVAVASNFATTDLDADRGKLPGKKLPLEVLKEMEANARKAGCTRGCLICLSHIKCTPKMKKFIPGRCHTYEGDKESAQGGIGEAIVDIPEIPGFKDLEPMEQFIAQVDLCVDCTTGCLKGLANVRCSDLLKKWLPTRCASFANKIQKQVDSIKGYAGD
modifications: SIGNAL (1)..(17)
notes: Gaussia luciferase mutant
B8: the “Activity of mutant relative to wild-type Gaussia luciferase without the signal peptide” value in experiment [1] came out at 0.413; in experiment [2], 1.030.

B9: Q152H Q163S T167G S170V G174N G183A: Gaussia luciferase mutant (protein)
chain: MGVKVLFALICIAVAEAKPTENNEDFNIVAVASNFATTDLDADRGKLPGKKLPLEVLKEMEANARKAGCTRGCLICLSHIKCTPKMKKFIPGRCHTYEGDKESAQGGIGEAIVDIPEIPGFKDLEPMEQFIAQVDLCVDCTTGCLKGLANVHCSDLLKKWLPSRCAGFAVKIQNQVDKIKGAAGD
modifications: SIGNAL (1)..(17)
notes: Gaussia luciferase mutant
For the molecule B9, the “Activity of mutant relative to wild-type Gaussia luciferase without the signal peptide” value in experiment [1] was 0.064; in experiment [2] it was 0.006.

B10: Q152R Q163S T167G S170D G174K A182Y G183A: Gaussia luciferase mutant (protein)
chain: MGVKVLFALICIAVAEAKPTENNEDFNIVAVASNFATTDLDADRGKLPGKKLPLEVLKEMEANARKAGCTRGCLICLSHIKCTPKMKKFIPGRCHTYEGDKESAQGGIGEAIVDIPEIPGFKDLEPMEQFIAQVDLCVDCTTGCLKGLANVRCSDLLKKWLPSRCAGFADKIQKQVDKIKGYAGD
modifications: SIGNAL (1)..(17)
notes: Gaussia luciferase mutant
For B10, the “Activity of mutant relative to wild-type Gaussia luciferase without the signal peptide” value in experiment [1] amounted to 1.402; in experiment [2] it was 1.050.

B11: T167S S170D G174N Q175E K178N A182L: Gaussia luciferase mutant (protein)
chain: MGVKVLFALICIAVAEAKPTENNEDFNIVAVASNFATTDLDADRGKLPGKKLPLEVLKEMEANARKAGCTRGCLICLSHIKCTPKMKKFIPGRCHTYEGDKESAQGGIGEAIVDIPEIPGFKDLEPMEQFIAQVDLCVDCTTGCLKGLANVQCSDLLKKWLPQRCASFADKIQNEVDNIKGLGGD
modifications: SIGNAL (1)..(17)
notes: Gaussia luciferase mutant
Regarding B11, the “Activity of mutant relative to wild-type Gaussia luciferase without the signal peptide” value in experiment [1] is recorded as 0.890; in experiment [2], 0.850.
